The results in this text go back to patent US20260008856A1, “METHODS OF TREATING DISEASE USING ANTI-IL1RAP ANTIBODIES AND ANTIBODY DRUG CONJUGATES” (Bluefin Biomedicine, Inc., priority 2022, published 2026).

One experiment deals with T1, recombinant human IL1RAP (Homo sapiens, UniProt Q9NPH3).
T1 construct: MBP-IL1RAP(S21-T367)-; 8xHis (C); made in house; host or cells: CHO (ExpiCHO transient expression)
In words: Binding competition binning on Octet. The note with it: Protein A biosensors. How it is done: Binding Competition binning: Binding competition among different antibodies was determined using a real-time, interferometry assay on an Octet Red™ instrument with Protein A-conjugated biosensors. To assess whether two antibodies competed for binding to a recombinant IL1RAP protein, the assay was performed as follows. Protein A biosensors were first submerged into wells containing 10 ug/mL of individual monoclonal antibodies for 5 minutes. Following the capture step, the biosensors were dipped briefly (15 seconds) into buffer and then any unoccupied sites on the biosensor were saturated by submerging them for 5 minutes into wells containing 100 ug/mL of an irrelevant monoclonal antibody. The Octet™ biosensors were then dipped briefly (15 seconds) in buffer before immersion for 1 minute into wells containing recombinant IL1RAP. The biosensors were dipped briefly (15 seconds) in buffer before immersion for 1 minute into wells containing a second recombinant antibody.
For the control case where the second antibody was the same as the first, there was no increase in signal, because there was no additional binding to the recombinant target.
For the control case where buffer was used instead of the first antibody, no recombinant target bound the non-quenching antibody on the biosensor and no second antibody bound the biosensor.
Selected antibodies were evaluated in pairs for their ability to simultaneously bind recombinant human IL1RAP. The analysis was performed by Octet™ loaded with Protein A Biosensors. A total of five different bins were determined as follows.
In general terms: In BLI a coated tip is dipped into the sample, and binding shifts an interference pattern.

For another experiment, the system named is IL-1β signaling. In words: IL-1 signaling reporter cell assay (HEK-Blue IL-1β cells), IL-1β. The experiment is classed as cell-based. To be noted: HEK-Blue IL-1β cells, antibody 1-10 pg/ml, IL-1β 0.5 ng/ml. How it is done: (§1) HEK-Blue IL-1β cells (Invivogen, CA) were harvested and plated in technical duplicates at a density of 50,000 cells per well in a 96-well plate. IL1RAP antibodies, or a corresponding human IgG1 control antibody was added to the wells in a concentration range of […]. After incubating cells with antibodies for 30 minutes, IL-1β was added to a final concentration of 0.5 ng/ml, and the plate was incubated overnight. To examine whether any of the antibodies were able to induce IL-1R activation in the absence of IL-1β, samples were incubated with 10 μg/mL antibody without addition of the ligand. The following day, substrate was added to the supernatants, and samples were analyzed for absorbance at 620 nm.

A further experiment concerns IL-33 signaling. In words: IL-33 signaling reporter cell assay (HEK-Blue IL-33 cells). The experiment is classed as cell-based. To be noted: antibody 1-10 μg/ml, IL-33 0.5 ng/ml. How it is done: FIGS. 7A and 7B show blockage of IL-33 signaling by anti-IL1RAP antibodies. HEK-Blue IL-33 cells (Invivogen, CA) were harvested and plated in technical duplicates at a density of 50,000 cells per well in a 96-well plate. Antibodies, or a corresponding human IgG1 control antibody, was added to the wells in a serial dilution starting at 10 μg/ml (FIG. 7A), or a concentration of 1 and 10 μg/ml (FIG. 7B). After incubating cells with antibodies for 30 minutes, IL-33 was added to a final concentration of 0.5 ng/ml, and the plate was incubated overnight. 24 hours later, substrate was added to the supernatants, and samples were analyzed for absorbance at 620 nm. CBIgG1 (anti-hen egg lysozyme antibody, CrownBio™) was included as a negative control.
as §1, with “IL-33” for “IL-1β”, “plate.” for “plate. IL1RAP”, “ST2” for “IL-1R”, “IL-33,” for “IL-1β,”

The next experiment relates to Karpas 299. In words: Flow cytometry binding to endogenous cell line Karpas 299. The experiment is classed as cell-based, human. Also on record: key to binding to Karpas 299 by flow cytometry: (−): No binding; (+): Weak binding; (++): Moderate binding; (+++): Strong binding. The note with it: primary antibody 1 ug/ml. How it is done: (§2) Staining for flow cytometry was performed in 1× cold PBS with 0.5% BSA. Primary antibodies (1 ug/ml) were incubated with live cells on ice for 30 minutes, after a brief wash, cells were incubated with Alexa Fluro® 488-conjugated anti-human IgG secondary antibody @1:1000 (709-546-149, Jackson ImmunoResearch). Acquisition of the data was performed on a MACSQuant® Flow Cytometers (Miltenyi Biotec) and analyzed with FlowJo software.
(§3) Over 1,000 hits were identified that bind strongly to CHO-human IL1RAP, but not parental CHO cells. 68 clones were selected for molecular cloning. Based on unique CDR3 sequences from the heavy chain variable domain, 35 antibodies from 13 families were confirmed by binding in IL1RAP positive cell lines EOL1 and Karpas 299 (see Table 8) by flow cytometry (MACSQuant® www.miltenybiotec.com).
A general note: In flow cytometry, cells or beads pass a laser one at a time.

In a further experiment the test system is MOLT3. In words: Flow cytometry binding to endogenous cell line MOLT3. The experiment is classed as cell-based. Details: key: (−): No binding; (+): Weak binding; (++): Moderate binding; (+++): Strong binding. To be noted: primary antibody 1 ug/ml. How it is done:
as §2

The next experiment deals with EOL-1. In words: Flow cytometry binding to endogenous cell line EOL-1. It is filed as cell-based, human. Details: key to binding to EOL-1 by flow cytometry: (−): No binding; (+): Weak binding; (++): Moderate binding; (+++): Strong binding. To be noted: primary antibody 1 ug/ml. How it is done:
as §2, §3

The subject of the next experiment is H69. In words: Flow cytometry binding to endogenous cell line H69. Details: key: (−): No binding; (+): Weak binding; (++): Moderate binding; (+++): Strong binding. The note with it: primary antibody 1 ug/ml. It is filed as cell-based. How it is done:
as §2

B1: 36A10_21B6: human anti-IL1RAP antibody, VH SEQ ID NO: 48, VL SEQ ID NO: 52 (antibody, V domains shown)
VH: QGQVVESGGGVVQPGRSLRLSCAASGFTFSSYTLHWVRQAPGKGLEWVAVIWYDGSNKYYVDSVKGRFTISRDNSKNTLYLQMNSLRAEDTAVYYCAREYGSGSYYNVYYGMDVWGQGTTVTLSS
VL: DIVMTQSPLSLPVTPGEPASISCRSSQSLLHSNGYNYLDWYLQKPGQSPHLLIYLASNRASGVPDRFSGSGSGTDFTLKISRVEAEDVGFYYCMQTLQIPLTFGGGTKVEIK
Turning to B1, in the experiment with recombinant human IL1RAP, the “competition for binding, bin (3)” value was “competed with each other” and the “competition for binding, bin (4)” value is reported as “competed with each other”. The “inhibition of IL1R1 / IL-1 signaling” value in the experiment on IL-1β signaling was “potent inhibition”. Also, the “inhibition of IL-33 signaling” value in the experiment on IL-33 signaling was “partially inhibit”. The “binding to Karpas 299 by flow cytometry” value in the experiment with Karpas 299 is on record as “(++)”. The “binding to MOLT3 by flow cytometry” value in the experiment on MOLT3 is given as “(+)”. The “binding to EOL-1 by flow cytometry” value in the experiment on EOL-1 is “(+++)”.

B2: 10C8_15A4: human anti-IL1RAP antibody, VH SEQ ID NO: 106, VL SEQ ID NO: 108 (antibody, V domains shown)
VH: EEQLLESGADLAQPGGSLRLSCAASGFTFSSYAMSWVRQAPGKGLEWVSTIRISGDTTYYADSVKGRFTISRDNSKNTLFLQMNSLRAEDTAVYYCVRDYYNGMDVWGHGTTVTVSS
VL: EIVLTQSPATLSLSPGERATLSCRASQRVSSYLAWYQQKPGQAPRLLIYDASNRATGIPARFSGSGSGTDFTLTISSLEPEDFAVYYCQQRSYWPPAFGQGTKLEIK
With B2, the “binding to H69 by flow cytometry” value with H69 was “(−)”. For the same molecule, in the experiment with Karpas 299, the “binding to Karpas 299 by flow cytometry” value was “(+++)”. In the experiment with EOL-1, the “binding to EOL-1 by flow cytometry” value is “(+++)”.

B3: 16H2_17D1: human anti-IL1RAP antibody, VH SEQ ID NO: 83, VL SEQ ID NO: 87 (antibody, V domains shown)
VH: EVQLLESGADLVQPGGSLRLSCAASGFTFSSYAMSWVRQAPGKGLEWVSTIRISGGTTYYADSVKGRFTISRDNSKNTLYLQMNSLRAEDTAVYYCVRDYYNGMDVWGQGTTVTVSS
VL: EIVLTQSPATLSLSPGERATLSCRASQRVSSYLAWYQQKPGQAPRLLIYDASNRATGIPARFSGSGSGTDFTLTISSLEPEDFAVYYCQQRSYWPPAFGQGTKLEIK
As to B3, the “binding to H69 by flow cytometry” value with H69 was “(−)”. Besides, the “binding to Karpas 299 by flow cytometry” value in the experiment on Karpas 299 is “(+++)”. The “binding to EOL-1 by flow cytometry” value in the experiment with EOL-1 was “(+++)”.

B4: 26C5_15B4: human anti-IL1RAP antibody, VH SEQ ID NO: 96, VL SEQ ID NO: 98 (antibody, V domains shown)
VH: EAQLLESGGGLVQPGGSLRLSCAASGFTFSSYAMSWVRQAPGKGLEWVSTISGSGGSTHYADSVKGRFTISRDNSKNTLYLQMNSLRAEDTAVYYCVRDYYYGMDVWGQGTTVTVSS
VL: EIVLTQSPATLSLSPGERATLSCRASQSVSSYLAWYQQKPGQAPRLLIYDASNRATGIPARFSGSGSGTDFTLTISSLEPEDFAVYYCQQRSYWPPTFGQGTKLEIK
On to B4, for which the “binding to H69 by flow cytometry” value with H69 was “(−)”. In addition, the “binding to Karpas 299 by flow cytometry” value in the experiment with Karpas 299 is on record as “(+++)”. The “binding to EOL-1 by flow cytometry” value in the experiment on EOL-1 is “(+++)”.

B5: 5G8_18A1: human anti-IL1RAP antibody, VH SEQ ID NO: 1, VL SEQ ID NO: 5 (antibody, V domains shown)
VH: QVELQESGPGLVKPSDTLSLTCTVTGGSISTYYWSWIRQPPGKGLEWIGYIFYTGTTNYNPSLKSRVTISVDASKNQFSLKLNSVTAADTAVYYCARDGSLDYWGQGALVTVSS
VL: DIQMTQSPSSLSASVGDRVTITCRASQSISNYLNWYQQKPGKAPKLLIFVASLLQSGVPSRFSGSGSGTDFTLTISSLQPEDFATYYCQQSYSTPFTFGPGTKLEIK
On to B5, for which, in the experiment with recombinant human IL1RAP, the “competition for binding, bin (2)” value is given as “competed with each other” and the “competition for binding, bin (3)” value is listed as “competed with each other”. For the same molecule, the “inhibition of IL1R1 / IL-1 signaling” value in the experiment with IL-1β signaling is “potent inhibition”. Also, the “binding to H69 by flow cytometry” value in the experiment on H69 is “(−)”. Also, the “binding to EOL-1 by flow cytometry” value in the experiment with EOL-1 is “(+++)”.

B6: 16H2_17D2: human anti-IL1RAP antibody, VH SEQ ID NO: 25, VL SEQ ID NO: 29 (antibody, V domains shown)
VH: QVQLVESGGGVVQPGGSLRLSCAASGFTFSSHGMHWVRQAPGKGLEWVAVIWYDGSNKFYTDSVQGRFTISRDNSKNTLNLQMNSLRAEDTAVYYCAREGLRAGYYFDFWGQGTLVTVSS
VL: DIQMTQSPSSLSASVGDRVTITCRASQRISFYSNWYQQKPGKAPKLLIYAASSLQSGVPSRFSGSGSGTDFTLTISSLQPEDFATYFCQQSHSTPLTFGGGTKLEIK
In the case of B6, the “competition for binding, bin (2)” value in the experiment with recombinant human IL1RAP is reported as “competed with each other”. The “inhibition of IL1R1 / IL-1 signaling” value in the experiment with IL-1β signaling was “potent inhibition”. Also, the “binding to EOL-1 by flow cytometry” value with EOL-1 is given as “(+++)”.

B7: 33H2_21B1: human anti-IL1RAP antibody, VH SEQ ID NO: 140, VL SEQ ID NO: 143 (antibody, V domains shown)
VH: EVQVVESGGGLVQPGGSLRLSCATSGFTFRSYWMTWVRQAPGKGLEWVANIKQDGSERHYVDSVKGRFTISRDNAKTSLYLQMSSLRAEDTAMYYCAREGYYGSGYFDYWGQGTLVTVSS
VL: DIQMTQSPSTLSASVGDRVIITCRASQSISRGLAWYQQKPGKAPKLLIYKASNLESGVPSRFSGSGSGTEFTLTISSLQPDDFAAYYCQQYSYYSHTFGQGTKVEIK
In the case of B7, the “binding to Karpas 299 by flow cytometry” value in the experiment with Karpas 299 is “(+++)”. Also, in the experiment on MOLT3, the “binding to MOLT3 by flow cytometry” value is recorded as “(+)”. For the same molecule, in the experiment with EOL-1, the “binding to EOL-1 by flow cytometry” value is “(+++)”.
